Experimental data reported in patent US20040009486A1, “Compositions and methods utilizing DNA polymerases” (priority 1999, published 2004).
Read-outs that look alike come from different tables or passages of the source.

What was measured:
[1] = tested on: rhodamine labeled-ddNTP and primer:template (pBluescript II); test: Steady-state kinetics for rhodamine labeled ddNTPs and primer:template; format: biochemical; conditions: 60° C.
Experimental: Km and Vmax values for rhodamine labeled-ddNTP incorporation were measured by incubating 50 nM primer: template with limiting amounts of polymerase (0.1 units or 5 nM) and varying concentrations of rhodamine labeled-ddNTP ranging from 0.1 nM to 500 nM. Samples were incubated at 60° C. for 10 minutes. The reactions were then quenched with ice-cold 0.2 M EDTA (final concentration). Unincorporated rhodamine labeled ddNTPs were removed by purifying the extended primer:templates on CENTRI-SEP spin columns. Reactions were then dried, and the pellets dissolved in 3:1 formamide:EDTA/blue dextran and analyzed by 6% denaturing PAGE on an ABI 377 sequencer. All peak area quantitations were performed using 3.1.2 GeneScan software and Km and Vmax values were calculated using Lineweaver-Burk plots.
Km and Vmax values for primer:template were measured with limiting amounts of enzyme (0.1 units or 5 nM) in the presence of 100 nM of R110-ddGTP and varying concentrations of primer:template (pBL31G:pBluescript II) ranging from 0.5 to 100 nM. Samples were incubated for 10 minutes at 60° C. The reactions were then quenched, purified from unincorporated rhodamine labeled-ddNTPs, and analyzed as described above.
Km and Vmax values for rhodamine-ddNTP incorporation were measured as described Patel, P. H. et al. (2001). J. Biol. Chem. 276, 5044-51 by incubating 50 nM primer:template with limiting amounts of DNA polymerase (0.1 units, 5 nM) and varying concentrations of rhodamine labeled-ddNTP (0.1 nM to 500 nM). All single nucleotide incorporations with R6G-ddATP and TAMRA-ddATP employed pBL34A:pBluescript II, while reactions with TAMRA-ddCTP were performed with pBL25C:pBluescript II. The 10× reaction buffer used for JDF-3 DNA polymerase contained 200 mM Tris-HCl (pH 8.8), 100 mM KCl, 100 mM (NH4)2SO4, and 20 mM MgSO4, while the 10× reaction buffer employed with the Taq F667Y mutant consisted of 260 mM Tris-HCl (pH 9.5) and 65 mM MgCl2. Samples were incubated at 60° C. for 10 minutes, and the reactions were quenched with ice-cold 0.2 M EDTA (final concentration). Unincorporated rhodamine-ddNTPs were removed with CENTRI-SEP spin columns according to the manufacturer's manual. Reactions were dried, and the pellets were dissolved in 3:1 formamide:EDTA/blue dextran and analyzed by 6% denaturing PAGE on an ABI 377 sequencer. Peak area quantitations were performed using 3.1.2 GeneScan® software and Km and Vmax values were calculated using Lineweaver-Burk plots.
Km and Vmax values for primer:template were measured with limiting amounts of enzyme (0.1 units, 5 nM) in the presence of 100 nM dye-ddNTP and varying concentrations of primer:template (0.5-100 nM). Single nucleotide incorporations with R110-ddGTP employed pBL31G:pBluescript II, while reactions with ROX-ddCTP were carried out with pBL25C:pBluescript II. Samples were incubated and analyzed as described above.

[2] = literature values; cited from earlier work
[3] = tested on: pBL34A:pBluescript II; test: Kinetics of TAMRA-ddATP insertion versus TAMRA-ddGTP misinsertion opposite dT; format: biochemical
Experimental: To determine the kinetics of misinsertion, the steady state Michaelis-Menten Km and Vmax parameters were calculated by incubations of limiting amounts of enzyme (0.1 units or 5 nM) in presence of 50 nM primer:template and varying concentrations of non-complementary rhodamine labeled ddNTP (1 nM to 10,000 nM) for 10 minutes at 60° C. Analysis and quantitations were performed as above.
To gain more insight into the mechanism of lower fidelity, we determined the misinsertion frequency for the mispair ddG:dT, which was evaluated in terms of relative Km and Vmax values for the wrong versus correct dye-ddNTP. Efficiency of nucleotide misinsertion was determined opposite a DNA template dT, primed with a 34-nucleotide oligomer (pBL34A). Apparent Michaelis constant (Km) and maximum velocity (Vmax) and relative insertion frequencies were measured for ddATP and ddGTP (Table X).
To determine the kinetics of misinsertion, Km and Vmax values were calculated by incubating limiting amounts of enzyme (0.1 units, 5 nM) in presence of 50 nM primer:template (pBL34A:pBluescript II) and varying concentrations of non-complementary rhodamine-ddGTP (1-10,000 nM) for 10 minutes at 60° C. Analysis and quantitation were performed as above.

Taq F667Y: ThermoSequenase, Taq F667Y mutant DNA polymerase from Amersham Pharmacia Biotech
Vmax(fmol/min) TAMRA-ddCTP ([1]; pBL25C:pBluescript): 2.3 fmol/min | Km ([1]; pBL25C:pBluescript, read-out: Km(nM) TAMRA-ddCTP): 0.3 nM | Vmax(fmol/min) Primer:template ([1]; pBL31G:pBluescript, 100 nM R110-ddGTP): 7.4 fmol/min | Km ([1]; pBL31G:pBluescript, 100 nM R110-ddGTP, read-out: Km(nM) Primer:template): 8 nM | Vmax(fmol/min) R6G-ddATP ([1]; pBL34A:pBluescript): 9 fmol/min | Vmax(fmol/min) TAMRA-ddATP ([1]; pBL34A:pBluescript): 1.9 fmol/min | Km ([1]; pBL34A:pBluescript, read-out: Km(nM) R6G-ddATP): 0.35 nM | Km ([1]; pBL34A:pBluescript, read-out: Km(nM) TAMRA-ddATP): 0.6 nM | dideoxynucleotide incorporation relative to unmutated / wild type enzyme [2]: 3000-8000 fold | Km for wrong nucleotide (ddGTP) opposite dT, lower than JDF-3 P410L/A485T [3]: 7 fold | misinsertion frequency for ddG:dT, higher than JDF-3 P410L/A485T [3]: ~17 fold | M.F. (M.E./I.E.) misinsertion frequency ([3]; ddG:dT mispair): 0.053 | misinsertion frequency for ddG:dT, higher than JDF-3 P410L/A485T ([3]; listed as Taq F667Y mutant): approximately 17 fold | I.E. Vmax, TAMRA-ddATP insertion ([3]; opposite dT, pBL34A primer): 1.9 | M.E. Vmax, TAMRA-ddGTP misinsertion ([3]; opposite dT, pBL34A primer): 16.9 | Km ([3]; opposite dT, pBL34A primer, read-out: I.E. Km, TAMRA-ddATP insertion): 0.6 nM | Km ([3]; opposite dT, pBL34A primer, read-out: M.E. Km, TAMRA-ddGTP misinsertion): 100 nM
